Reference: patent US20230174608A1 (published 2023)
Where no end group is shown, it is not given here. [ ]: non-standard residue; d: D form. Aib = CC(C)(N)C(=O)O

B1: dgc019 (peptide)
peptide: HXQGTFTSDYSKYLEERAAKEFIAWLEGEG
HELM: PEPTIDE1{H.[Aib].Q.G.T.F.T.S.D.Y.S.K.Y.L.E.E.R.A.A.K.E.F.I.A.W.L.E.G.E.G.[am]}|PEPTIDE2{[CCCCCCCCCCCCCCCC(=O)[*:2]].[gGlu]}$PEPTIDE1,PEPTIDE2,20:R3-2:R2$$$V2.0; N-terminus assumed
SMILES: CCCCCCCCCCCCCCCC(=O)N[C@@H](CCC(=O)NCCCC[C@H](NC(=O)[C@H](C)NC(=O)[C@H](C)NC(=O)[C@H](CCCNC(=N)N)NC(=O)[C@H](CCC(=O)O)NC(=O)[C@H](CCC(=O)O)NC(=O)[C@H](CC(C)C)NC(=O)[C@H](Cc1ccc(O)cc1)NC(=O)[C@H](CCCCN)NC(=O)[C@H](CO)NC(=O)[C@H](Cc1ccc(O)cc1)NC(=O)[C@H](CC(=O)O)NC(=O)[C@H](CO)NC(=O)[C@@H](NC(=O)[C@H](Cc1ccccc1)NC(=O)[C@@H](NC(=O)CNC(=O)[C@H](CCC(N)=O)NC(=O)C(C)(C)NC(=O)[C@@H](N)Cc1c[nH]cn1)[C@@H](C)O)[C@@H](C)O)C(=O)N[C@@H](CCC(=O)O)C(=O)N[C@@H](Cc1ccccc1)C(=O)N[C@H](C(=O)N[C@@H](C)C(=O)N[C@@H](Cc1c[nH]c2ccccc12)C(=O)N[C@@H](CC(C)C)C(=O)N[C@@H](CCC(=O)O)C(=O)NCC(=O)N[C@@H](CCC(=O)O)C(=O)NCC(N)=O)[C@@H](C)CC)C(=O)O
B2: dgc020 (peptide)
peptide: B1 peptide
HELM: PEPTIDE1{H.[Aib].Q.G.T.F.T.S.D.Y.S.K.Y.L.E.E.R.A.A.K.E.F.I.A.W.L.E.G.E.G.[am]}|PEPTIDE2{[CCCCCCCCCCCCCCCC(=O)[*:2]].[gGlu].[gGlu]}$PEPTIDE1,PEPTIDE2,20:R3-3:R2$$$V2.0; N-terminus assumed
SMILES: CCCCCCCCCCCCCCCC(=O)N[C@@H](CCC(=O)N[C@@H](CCC(=O)NCCCC[C@H](NC(=O)[C@H](C)NC(=O)[C@H](C)NC(=O)[C@H](CCCNC(=N)N)NC(=O)[C@H](CCC(=O)O)NC(=O)[C@H](CCC(=O)O)NC(=O)[C@H](CC(C)C)NC(=O)[C@H](Cc1ccc(O)cc1)NC(=O)[C@H](CCCCN)NC(=O)[C@H](CO)NC(=O)[C@H](Cc1ccc(O)cc1)NC(=O)[C@H](CC(=O)O)NC(=O)[C@H](CO)NC(=O)[C@@H](NC(=O)[C@H](Cc1ccccc1)NC(=O)[C@@H](NC(=O)CNC(=O)[C@H](CCC(N)=O)NC(=O)C(C)(C)NC(=O)[C@@H](N)Cc1c[nH]cn1)[C@@H](C)O)[C@@H](C)O)C(=O)N[C@@H](CCC(=O)O)C(=O)N[C@@H](Cc1ccccc1)C(=O)N[C@H](C(=O)N[C@@H](C)C(=O)N[C@@H](Cc1c[nH]c2ccccc12)C(=O)N[C@@H](CC(C)C)C(=O)N[C@@H](CCC(=O)O)C(=O)NCC(=O)N[C@@H](CCC(=O)O)C(=O)NCC(N)=O)[C@@H](C)CC)C(=O)O)C(=O)O

What follows are binders tested against GLP-1 receptor (GLP-1R), stably expressed on HEK293 cells (assay: cell-based or functional assay).

Row | GLP-1R (nM EC50), receptor-mediated cAMP production in HEK293 cells [nM] | Binder
1 | 0.792 | B1
2 | 1.13 | HSQGTFTSDYSKYLDERAAKEFIAWLEAGG-NH2 (not fully specified (residue 20); printed as HSQGTFTSDYSKYLDERAAK*EFIAWLEAGG) [dgc001]
3 | 0.382 | H[Aib]QGTFTSDYSKYLEERAAKEFIAWLEGEG-NH2 (not fully specified (residue 20); printed as HAibQGTFTSDYSKYLEERAAK*EFIAWLEGEG) [dgc021]
4 | 1.51 | B2

What follows are binders tested against Glucagon receptor (GCGR), stably expressed on HEK293 cells (assay: cell-based or functional assay).

Row | GCGR (nM EC50), receptor-mediated cAMP production in HEK293 cells [nM] | Binder
5 | 1.83 | B1
6 | 0.806 | HSQGTFTSDYSKYLDERAAKEFIAWLEAGG-NH2 (not fully specified (residue 20); printed as HSQGTFTSDYSKYLDERAAK*EFIAWLEAGG) [dgc001]
7 | 3.93 | H[Aib]QGTFTSDYSKYLEERAAKEFIAWLEGEG-NH2 (not fully specified (residue 20); printed as HAibQGTFTSDYSKYLEERAAK*EFIAWLEGEG) [dgc021]
8 | 0.883 | B2
